# PMC4252038, “H2O2 Inhibits ABA-Signaling Protein Phosphatase HAB1” (PLoS ONE, 2014)
# B1: His6-MBP-HAB1(171–511 aa) wild type (domain or fragment, Arabidopsis thaliana, UniProt Q9CAJ0 171-511, looked up)
# chain: NSNHLVKGRSVYELDCIPLWGTVSIQGNRSEMEDAFAVSPHFLKLPIKMLMGDHEGMSPSLTHLTGHFFGVYDGHGGHKVADYCRDRLHFALAEEIERIKDELCKRNTGEGRQVQWDKVFTSCFLTVDGEIEGKIGRAVVGSSDKVLEAVASETVGSTAVVALVCSSHIVVSNCGDSRAVLFRGKEAMPLSVDHKPDREDEYARIENAGGKVIQWQGARVFGVLAMSRSIGDRYLKPYVIPEPEVTFMPRSREDECLILASDGLWDVMNNQEVCEIARRRILMWHKKNGAPPLAERGKGIDPACQAAADYLSMLALQKGSKDNISIIVIDLKAQRKFKTRT
# notes: HAB1 protein phosphatase 2C, Arabidopsis thaliana, phosphatase domain, residues 171-511; In some assays the protein was treated with 0.3 mM or 1 mM H2O2 (30 min, 30°C) beforehand; the treatment is told by the assay; After 0.3 mM H2O2 it is a mixture of monomers and disulfide-linked dimers (C186, C274), after 1 mM higher oligomers; also called HAB1 phosphatase domain; wild type HAB1; source: E. …
# Target: the molecule itself
# Assay: SEC; size exclusion chromatography of His6-MBP-HAB1(171–511 aa) treated with 0.3 mM H2O2 for 30 min at 30°C; monomer to disulfide-linked dimer
protein,measurement,value
B1,stoichiometry N,2
